*1 amine or outer side, *2 acyl side, *3 side chain or, on linkers, in order; H or OH if unused. Bridges are numbered along the chain shown (N, C = ends). Primed or numbered codes have the meaning given here. Where no end group is shown, it is not given here. Side-chain parts run from the residue outwards. [ ]: non-standard residue; d: D form. The star is where a group is joined. Ttds = 1,13-diamino-4,7,10-trioxatridecan-succinamic acid, NCCCOCCOCCOCCCNC(=O)CCC(=O)*; DOTA(Ga) = O=C1CN2CCN3CCN(CC(=O)*)CCN(CC2)CC(=O)[O][Ga]([O]1)[O]C(=O)C3; DOTA(In) = O=C1CN2CCN3CCN(CC(=O)*)CCN(CC2)CC(=O)[O][In]([O]1)[O]C(=O)C3; DOTA(Lu) = O=C1CN2CCN3CCN(CC(=O)*)CCN(CC2)CC(=O)[O][Lu]([O]1)[O]C(=O)C3; NH(1-deoxy-D-glucityl) = OC[C@@H](O)[C@@H](O)[C@H](O)[C@@H](O)CN*; dE(AGLU) = D-glutamic acid bearing 1-amino-1-deoxy-D-glucitol; Pro(trans-4-NH2) = O=C([C@@H]1C[C@@H](N[*:3])CN1[*:1])[*:2]; DOTA = O=C(O)CN1CCN(CC(=O)O)CCN(CC(=O)*)CCN(CC(=O)O)CC1; 2Lut = 2,6-lutidylidene bridge between two thiols; Trp(5-Br) = N[C@@H](Cc1c[nH]c2ccc(Br)cc12)C(=O)O; Trp(5-Cl) = N[C@@H](Cc1c[nH]c2ccc(Cl)cc12)C(=O)O; Pyridine(2,6-diCH2) = c1cc(C[*:1])nc(C[*:2])c1; 2Lut″ = 2,6-lutidylidene linking two thiols; APAc = 4-amino-1-carboxymethylpiperidine; Pro(4S-NH2) = N[C@@H]1CN[C@H](C(=O)O)C1; mXylylene = c1cc(C[*:1])cc(C[*:2])c1; LuDOTA = DOTA Lutetium(III) complex; Glutaryl = O=C(CCCC(=O)[*:2])[*:1]; AGLU = 1-amino-1-deoxy-D-glucitol; Cya = N[C@@H](CS(=O)(=O)O)C(=O)O; Hyp = O=C(O)[C@@H]1C[C@@H](O)CN1; Cysteamide = C(CS[*:3])N[*:1]; dGlu(AGLU) = not defined here; Suc = O=C(CCC(=O)[*:2])[*:1]; GLUSEROL = not defined here; hSer = N[C@@H](CCO)C(=O)O; Api = NC1(C(=O)O)CCNCC1; Thp = NC1(C(=O)O)CCOCC1; Aib = CC(C)(N)C(=O)O
B1: HO-Succinyl-Trp-5Clw-Hyp-Glu-leu-[Cys(2Lut)-Thp-Leu-Ile-Cys]-APAc-glu(AGLU)-Lys(DOTA)-NH2 (peptide)
peptide: Suc-W[Trp(5-Cl)][Hyp]E[dL]C[Thp]LIC-{APAc-dGlu(AGLU)-Lys(DOTA)-NH2}
modifications: linker 6-10 via 2Lut; reading uncertain; also: printed as HO-Succinyl-Trp-5Clw-Hyp-Glu-leu-[Cys(2Lut)-Thp-Leu-Ile-Cys]-APAc-glu(AGLU)-Lys(DOTA)-NH2
B2: Ac-Cya-Trp-5Clw-Hyp-Glu-leu-[Cys(2Lut)-Aib-Leu-Ile-AET] (peptide)
peptide: Ac-[Cya]W[Trp(5-Cl)][Hyp]E[dL]C[Aib]LI[Cysteamide]
modifications: linker (positions not given here) via Pyridine(2,6-diCH2); not fully specified (bridges); printed as Ac-Cya-Trp-5Clw-Hyp-Glu-leu-[Cys(2Lut)-Aib-Leu-Ile-AET]
B3: DOTA-Ttds-Asp-Trp-5Clw-Pro-Glu-leu-[Cys(3MeBn)-Apc(Ac)-Leu-Ile-AET] (peptide)
peptide: {DOTA-Ttds}-DW[Trp(5-Cl)]PE[dL]C[Api](Ac)LI[Cysteamide]
modifications: linker (positions not given here) via mXylylene; not fully specified (bridges); printed as DOTA-Ttds-Asp-Trp-5Clw-Pro-Glu-leu-[Cys(3MeBn)-Apc(Ac)-Leu-Ile-AET]
B4: Ac-Asp-Trp-5Clw-Hyp-Hse-leu-[Cys(2Lut)-Thp-Leu-Ile-Cys]-NH2 (peptide)
peptide: Ac-DW[Trp(5-Cl)][Hyp][hSer][dL]C[Thp]LIC-NH2
modifications: linker 7-11 via Pyridine(2,6-diCH2)
SMILES: CC[C@H](C)[C@@H]1NC(=O)[C@H](CC(C)C)NC(=O)C2(CCOCC2)NC(=O)[C@@H](NC(=O)[C@@H](CC(C)C)NC(=O)[C@H](CCO)NC(=O)[C@@H]2C[C@@H](O)CN2C(=O)[C@H](Cc2c[nH]c3ccc(Cl)cc23)NC(=O)[C@H](Cc2c[nH]c3ccccc23)NC(=O)[C@H](CC(=O)O)NC(C)=O)CSCc2cccc(n2)CSC[C@@H](C(N)=O)NC1=O
B5: HO-Succinyl-Trp-5Clw-Tap-Glu-leu-[Cys(2Lut)-Apc-Leu-Ile-Cys]-APAc-glu(AGLU)-Lys(DOTA)-NH2 (peptide)
peptide: W[Trp(5-Cl)][Pro(trans-4-NH2)]E[dL]C[Api]LIC-{APAc-dE(AGLU)-K(DOTA)-NH2}
modifications: linker 6-10 via 2Lut; not fully specified (N-terminus); printed as HO-Succinyl-Trp-5Clw-Tap-Glu-leu-[Cys(2Lut)-Apc-Leu-Ile-Cys]-APAc-glu(AGLU)-Lys(DOTA)-NH2
B6: AGLU-Glutar-Asp-Trp-5Clw-Hyp-Glu-leu-[Cys(2Lut)-Apc(DOTA)-Leu-Ile-Cys]-APAc-glu(AGLU)-NH2 (peptide)
peptide: DWXXEXCXLIC
modifications: AGLU-Glutar; 5Clw; Hyp; D-leu; Apc(DOTA); 2Lut bridge Cys-Cys; APAc; D-glu(AGLU); C-term NH2
B7: AGLU-Glutar-Asp-Trp-5Clw-Hyp-Glu-leu-[Cys(2Lut)-Apc(DOTA)-Leu-Ile-AET] (peptide)
peptide: {AGLU-Glutaryl}-DW[Trp(5-Cl)][Hyp]E[dL]C[Api](DOTA)LI[Cysteamide]
modifications: thioether (positions not given here) via Pyridine(2,6-diCH2); not fully specified (bridges); printed as AGLU-Glutar-Asp-Trp-5Clw-Hyp-Glu-leu-[Cys(2Lut)-Apc(DOTA)-Leu-Ile-AET]
B8: AGLU-Glutar-Asp-Trp-5Clw-Hyp-Glu-leu-[Cys(2Lut)-Apc(InDOTA)-Leu-Ile-Cys]-APAc-glu(AGLU)-NH2 (peptide)
peptide: DWXXEXCXLIC
modifications: AGLU-Glutar; 5Clw; Hyp; D-leu; Apc(InDOTA); 2Lut bridge Cys-Cys; APAc; D-glu(AGLU); C-term NH2
B9: DOTA-Ttds-Asp-Trp-5Clw-Pro-Glu-leu-[Cys(3MeBn)-Aib-Leu-Ile-AET] (peptide)
peptide: {DOTA-Ttds}-DW[Trp(5-Cl)]PE[dL]C[Aib]LI[Cysteamide]
modifications: linker (positions not given here) via mXylylene; not fully specified (bridges); printed as DOTA-Ttds-Asp-Trp-5Clw-Pro-Glu-leu-[Cys(3MeBn)-Aib-Leu-Ile-AET]
B10: Ac-Hse-Trp-5Brw-Hyp-Glu-leu-[Cys(2Lut)-Thp-Leu-Ile-Cys]-NH2 (peptide)
peptide: Ac-[hSer]W[Trp(5-Br)][Hyp]E[dL]C[Thp]LIC-NH2
modifications: linker 7-11 via Pyridine(2,6-diCH2)
SMILES: CC[C@H](C)[C@@H]1NC(=O)[C@H](CC(C)C)NC(=O)C2(CCOCC2)NC(=O)[C@@H](NC(=O)[C@@H](CC(C)C)NC(=O)[C@H](CCC(=O)O)NC(=O)[C@@H]2C[C@@H](O)CN2C(=O)[C@H](Cc2c[nH]c3ccc(Br)cc23)NC(=O)[C@H](Cc2c[nH]c3ccccc23)NC(=O)[C@H](CCO)NC(C)=O)CSCc2cccc(n2)CSC[C@@H](C(N)=O)NC1=O
B11: Ac-Ser-Trp-5Clw-Hyp-Glu-leu-[Cys(2Lut)-Thp-Leu-Ile-Cys]-NH2 (peptide)
peptide: Ac-SW[Trp(5-Cl)][Hyp]E[dL]C[Thp]LIC-NH2
modifications: linker 7-11 via Pyridine(2,6-diCH2)
SMILES: CC[C@H](C)[C@@H]1NC(=O)[C@H](CC(C)C)NC(=O)C2(CCOCC2)NC(=O)[C@@H](NC(=O)[C@@H](CC(C)C)NC(=O)[C@H](CCC(=O)O)NC(=O)[C@@H]2C[C@@H](O)CN2C(=O)[C@H](Cc2c[nH]c3ccc(Cl)cc23)NC(=O)[C@H](Cc2c[nH]c3ccccc23)NC(=O)[C@H](CO)NC(C)=O)CSCc2cccc(n2)CSC[C@@H](C(N)=O)NC1=O

What was measured:
[1] = target: biotinylated extracellular domain of the human GIP receptor (bioGIPR) (human) (UniProt P48546); assay: SPR single cycle kinetics, bioGIPR captured on chip; category A: pKD >9.0
biotinylated extracellular domain of the human GIP receptor (bioGIPR) (human), sequence (P48546 24-138 limits assumed): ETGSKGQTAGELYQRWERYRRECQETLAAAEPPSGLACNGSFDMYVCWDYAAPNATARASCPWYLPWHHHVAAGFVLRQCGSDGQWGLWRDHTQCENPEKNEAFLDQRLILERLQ

[2] = target: human Gastric Inhibitory Peptide Receptor (human) (UniProt P48546); assay: FACS competition with GIP-057 on CHO-K1-hGIPR cells; pIC50 category A: >8.0
human Gastric Inhibitory Peptide Receptor (human), sequence (P48546 22-466 limits assumed): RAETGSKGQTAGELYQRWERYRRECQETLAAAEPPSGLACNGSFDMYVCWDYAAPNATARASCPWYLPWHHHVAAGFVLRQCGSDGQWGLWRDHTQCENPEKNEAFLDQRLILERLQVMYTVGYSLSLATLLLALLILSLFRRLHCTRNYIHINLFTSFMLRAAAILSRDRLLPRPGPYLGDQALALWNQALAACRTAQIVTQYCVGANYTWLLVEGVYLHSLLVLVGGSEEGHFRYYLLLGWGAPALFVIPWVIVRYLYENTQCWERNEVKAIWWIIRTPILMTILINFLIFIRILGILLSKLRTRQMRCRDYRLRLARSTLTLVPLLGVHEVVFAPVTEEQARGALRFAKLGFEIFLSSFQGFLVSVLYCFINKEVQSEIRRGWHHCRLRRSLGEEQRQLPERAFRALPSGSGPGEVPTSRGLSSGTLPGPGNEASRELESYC

[3] = target: biotinylated extracellular domain of the human GIP receptor (bioGIPR) (human) (UniProt P48546); assay: SPR single cycle kinetics, bioGIPR captured on chip; category A: t1/2 >15 min
[4] = target: human Gastric Inhibitory Peptide Receptor (GIPR) (human) (UniProt P48546); assay: FACS competition vs biotinylated GIP-057 on CHO-K1-hGIPR cells; category A: pIC50 >8.0
human Gastric Inhibitory Peptide Receptor (GIPR) (human), sequence (P48546 22-466 limits assumed): as above

Binder | pKD [1] [pkd] | pIC50 [2] [pic50] | t1/2 [3] [min] | pIC50 [4] [pic50]
{AGLU-Glutaryl}-DW[Trp(5-Cl)][Pro(trans-4-NH2)]E[dL]C[Api](DOTA(Ga))LIC-{APAc-dE(AGLU)-NH2} (linker 7-11 via Pyridine(2,6-diCH2)) [AGLU-Glutar-Asp-Trp-5Clw-Tap-Glu-leu-[Cys(2Lut)-Apc(GaDOTA)-Leu-Ile-Cys]-APAc-glu(AGLU)-NH2] | > 9 | > 8 | > 15 | 
{AGLU-Glutaryl}-DW[Trp(5-Cl)][Pro(trans-4-NH2)]E[dL]C[Api](DOTA(Lu))LIC-{APAc-dE(AGLU)-NH2} (linker 7-11 via Pyridine(2,6-diCH2)) [AGLU-Glutar-Asp-Trp-5Clw-Tap-Glu-leu-[Cys(2Lut)-Apc(LuDOTA)-Leu-Ile-Cys]-APAc-glu(AGLU)-NH2] | > 9 | > 8 | > 15 | 
B1 | > 9 | > 8 | > 15 | 
B2 | > 9 | > 8 | > 15 | 
B3 | > 9 | > 8 | > 15 | 
B4 | > 9 | > 8 | > 15 | 
B5 | > 9 | > 8 | > 15 | 
{AGLU-Glutaryl}-DW[Trp(5-Cl)][Hyp]E[dL]C[Thp]LIC-{APAc-dE(AGLU)-K(DOTA)-NH2} (linker 7-11 via Pyridine(2,6-diCH2)) [AGLU-Glutar-Asp-Trp-5Clw-Hyp-Glu-leu-[Cys(2Lut)-Thp-Leu-Ile-Cys]-APAc-glu(AGLU)-Lys(DOTA)-NH2] | > 9 | > 8 | > 15 | 
{DOTA-Ttds}-DW[Trp(5-Cl)][Pro(4S-NH2)]E[dL]C[Aib]LI[Cysteamide] (linker 7-11 via mXylylene) [DOTA-Ttds-Asp-Trp-5Clw-4Ap-Glu-leu-[Cys(3MeBn)-Aib-Leu-Ile-AET]] | > 9 | > 8 | > 15 | 
{AGLU-Glutaryl}-DW[Trp(5-Cl)][Pro(trans-4-NH2)]E[dL]C[Api](DOTA)LIC-{APAc-GLUSEROL} (linker 7-11 via Pyridine(2,6-diCH2); reading uncertain) [AGLU-Glutar-Asp-Trp-5Clw-Tap-Glu-leu-[Cys(2Lut)-Apc(DOTA)-Leu-Ile-Cys]-APAc-GLUSEROL] | > 9 |  | > 15 | > 8
B6 | > 9 | > 8 | > 15 | 
{DOTA-dE(AGLU)-APAc}-DW[Trp(5-Cl)][Hyp]E[dL]C[Thp]LIC-{APAc-dE(AGLU)-NH2} (linker 7-11 via Pyridine(2,6-diCH2)) [DOTA-glu(AGLU)-APAc-Asp-Trp-5Clw-Hyp-Glu-leu-[Cys(2Lut)-Thp-Leu-Ile-Cys]-APAc-glu(AGLU)-NH2] | > 9 | > 8 | > 15 | 
{AGLU-Glutaryl}-DW[Trp(5-Cl)][Hyp]E[dL]C[Api](DOTA(Lu))LIC-{APAc-dE(AGLU)-NH2} (linker 7-11 via Pyridine(2,6-diCH2)) [AGLU-Glutar-Asp-Trp-5Clw-Hyp-Glu-leu-[Cys(2Lut)-Apc(LuDOTA)-Leu-Ile-Cys]-APAc-glu(AGLU)-NH2] | > 9 | > 8 | > 15 | 
Suc-W[Trp(5-Cl)][Hyp]E[dL]C[Api](DOTA(In))LI[Cysteamide] (linker 6-10 via 2Lut; also: In complex of DOTA) [HO-Succinyl-Trp-5Clw-Hyp-Glu-leu-[Cys(2Lut)-Apc(InDOTA)-Leu-Ile-AET]] | > 9 | > 8 | > 15 | 
B7 | > 9 | > 8 | > 15 | 
B8 | > 9 | > 8 | > 15 | 
B9 | > 9 | > 8 | > 15 | 
{AGLU-Glutaryl-APAc}-DW[Trp(5-Cl)][Pro(trans-4-NH2)]([Glutaryl-NH(1-deoxy-D-glucityl)])E[dL]C[Api](DOTA)LIC-{APAc-dE(AGLU)-NH2} (linker 7-11 via Pyridine(2,6-diCH2)) | > 9 | > 8 | > 15 | 
B10 | > 9 | > 8 | > 15 | 
{LuDOTA-Ttds}-DW[Trp(5-Cl)]PE[dL]C[Aib]LI[Cysteamide] (linker 7-11 via mXylylene) [LuDOTA-Ttds-Asp-Trp-5Clw-Pro-Glu-leu-[Cys(3MeBn)-Aib-Leu-Ile-AET]] | > 9 | > 8 | > 15 | 
{DOTA-Ttds}-DW[Trp(5-Cl)][Pro(trans-4-NH2)]E[dL]C[Aib]LI[Cysteamide] (linker 7-11 via mXylylene) [DOTA-Ttds-Asp-Trp-5Clw-Tap-Glu-leu-[Cys(3MeBn)-Aib-Leu-Ile-AET]] | > 9 | > 8 | > 15 | 
{AGLU-Glutaryl}-DW[Trp(5-Cl)][Pro(trans-4-NH2)]E[dL]C[Api](DOTA(In))LIC-{APAc-dE(AGLU)-NH2} (linker 7-11 via Pyridine(2,6-diCH2)) [AGLU-Glutar-Asp-Trp-5Clw-Tap-Glu-leu-[Cys(2Lut)-Apc(InDOTA)-Leu-Ile-Cys]-APAc-glu(AGLU)-NH2] | > 9 | > 8 | > 15 | 
B11 | > 9 | > 8 | > 15 | 
{AGLU-Glutaryl}-DW[Trp(5-Cl)][Pro(trans-4-NH2)]E[dL]C[Api](DOTA)LIC-{APAc-dE(AGLU)-NH2} (linker 7-11 via Pyridine(2,6-diCH2)) [AGLU-Glutar-Asp-Trp-5Clw-Tap-Glu-leu-[Cys(2Lut)-Apc(DOTA)-Leu-Ile-Cys]-APAc-glu(AGLU)-NH2] | > 9 | > 8 | > 15 | 
